US9618524B2, “Method, composition, isolation and identification of a plaque particle and related biomarker” (Plaxgen Inc., priority 2012, dated 2017)

B1: Serum paraoxonase/arylesterase (protein)
chain: AKLIALTLLGMGLALFRNHQSSYQTRLNALREVQPVELPNCNLVKGIETGSEDLEILPNGLAFISSGLKYPGIKSFNPNSPGKILLMDLNEEDPTVLELGITGSKFDVSSFNPHGISTFTDEDNAMYLLVVNHPDAKSTVELFKFQEEEKSLLHLKTIRHKLLPNLNDIVAVGPEHFYGTNDHYFLDPYLQSWEMYLGLAWSYVVYYSPSEVRVVAEGFDFANGINISPDGKYVYIAELLAHKIHVYEKHANWTLTPLKSLDFNTLVDNISVDPETGDLWVGCHPNGMKIFFYDSENPPASEVLRIQNILTEEPKVTQVYAENGTVLQGSTVASVYKGKLLIGTVFHKALYCEL
B2: C4b-binding protein alpha chain (protein)
chain: NCGPPPTLSFAAPMDITLTETRFKTGTTLKYTCLPGYVRSHSTQTLTCNSDGEWVYNTFCIYKRCRHPGELRNGQVEIKTDLSFGSQIEFSCSEGFFLIGSTTSRCEVQDRGVGWSHPLPQCEIVKCKPPPDIRNGRHSGEENFYAYGFSVTYSCDPRFSLLGHASISCTVENETIGVWRPSPPTCEKITCRKPDVSHGEMVSGFGPIYNYKDTIVFKCQKGFVLRGSSVIHCDADSKWNPSPPACEPNSCINLPDIPHASWETYPRPTKEDVYVVGTVLRYRCHPGYKPTTDEPTTVICQKNLRWTPYQGCEALCCPEPKLNNGEITQHRKSRPANHCVYFYGDEISFSCHETSRFSAICQGDGTWSPRTPSCGDICNFPPKIAHGHYKQSSSYSFFKEEIIYECDKGYILVGQAKLSCSYSHWSAPAPQCKALCRKPELVNGRLSVDKDQYVEPENVTIQCDSGYGVVGPQSITCSGNRTWYPEVPKCEWETPEGCEQVLTGKRLMQCLPNPEDVKMALEVYKLSLEIEQLELQRDSARQSTLDKEL
B3: Angiotensinogen (protein)
chain: DRVYIHPFHLVIHNESTCEQLAKANAGKPKDPTFIPAPIQAKTSPVDEKALQDQLVLVAAKLDTEDKLRAAMVGMLANFLGFRIYGMHSELWGVVHGATVLSPTAVFGTLASLYLGALDHTADRLQAILGVPWKDKNCTSRLDAHKVLSALQAVQGLLVAQGRADSQAQLLLSTVVGVFTAPGLHLKQPFVQGLALYTPVVLPRSLDFTELDVAAEKIDRFMQAVTGWKTGCSLMGASVDSTLAFNTYVHFQGKMKGFSLLAEPQEFWVDNSTSVSVPMLSGMGTFQHWSDIQDNFSVTQVPFTESACLLLIQPHYASDLDKVEGLTFQQNSLNWMKKLSPRTIHLTMPQLVLQGSYDLQDLLAQAELPAILHTELNLQKLSNDRIRVGEVLNSIFFELEADEREPTESTQQLNKPEVLEVTLNRPFLFAVYDQSATALHFLGRVANPLSTA
B4: CD5 antigen-like (protein)
chain: SPSGVRLVGGLHRCEGRVEVEQKGQWGTVCDDGWDIKDVAVLCRELGCGAASGTPSGILYEPPAEKEQKVLIQSVSCTGTEDTLAQCEQEEVYDCSHDEDAGASCENPESSFSPVPEGVRLADGPGHCKGRVEVKHQNQWYTVCQTGWSLRAAKVVCRQLGCGRAVLTQKRCNKHAYGRKPIWLSQMSCSGREATLQDCPSGPWGKNTCNHDEDTWVECEDPFDLRLVGGDNLCSGRLEVLHKGVWGSVCDDNWGEKEDQVVCKQLGCGKSLSPSFRDRKCYGPGVGRIWLDNVRCSGEEQSLEQCQHRFWGFHDCTHQEDVAVICSG

System: Tau plaque particles
Assay: Mass spectroscopy proteomics, semi-quantitative binding affinity of serum proteins (plaqueproteome, Table 2)
Parameters: species or system human
Settings: higher number = stronger affinity
Method: For Tau-74 (74-102) (Exon 3/Insert 2 domain) preparation, 1 mg of Tau-74 was suspended in 1 mL of PBS and the sample was incubated at 37° C. for 2 hrs. Similarly for preparing Tau-275 (275-305) (Repeat 2 domain) 1 mg of the peptide was suspended in 1 mL of PBS and the sample was incubated at 37° C. for 2 hrs. After incubation, all the samples were centrifuged for 5 min. at 5000 rpm to remove precipitate, if any, and the supernatant containing oligomers/aggregates were used for in vitro amyloid plaque particles formation assay. For detecting Tau plaque particles, Thioflavin S (Ex/Em=430 nm/550 nm) amyloid binding fluorescent dye (10 μg) was used in the assay.
Next, to isolate Tau plaque particles, as performed for Abeta-42 and Abeta-28 plaque particles isolation, diluted serum samples were used for incubation separately with Tau-45, Tau-74 and Tau-275 oligomers/aggregates. Each assay was performed in 1 mL reaction (800 μL of 50% plasma or serum) and 200 μL (30 μg) of each Tau aggregates and the mixtures were incubated at 37° C. for 1 hr. To the each mixture Thioflavin S dye (120 μg) was added and the sample was incubated for additional 30 min at 37° C. After the incubation, each sample was directly used for sample acquisition using flow cytometer (FACS ARIA II, BD Biosciences, San Jose, Calif.). After initial detection of Tau plaque particles, gates were drawn in the acquisition blot to separately sort and isolate fluorescently labeled Tau plaque particles.
(§1) For preparing trypsin digested peptide sequences, the isolated plaque particles were centrifuged at 10000 rpm for 5 min and the pellet containing plaque particles was resuspended in 100 μl PBS buffer. Stock solutions of digestion buffer (Ammonium Biocarbonate 50 mM), reducing buffer (DDT 100 mM) and alkylation buffer (lodoaceamide 100 mM) were prepared and stored at −20° C. for up to two months. For trypsin digestion, 100 μl of each plaque particles (2000 of Abeta-42, cholesterol, Tau and alpha-synuclein) were precipitated using cold acetone −80° C. by adding 4X's the volume. The samples were placed on dry ice for 10 min with intermittent vortex. Next, the samples were centrifuged at 4° C. at 10000 G for 10 min. Top layer of acetone was carefully removed from the tube with care not to disturb the plaque particles pellet. The samples were speed-vac for 10 min to ensure all acetone has been boiled away. The plaque particles pellet were reconstituted with 15 μl 8M Urea 100 mM Ammonium bicarbonate stock and 20 μl protease max solution. The protease max solution (Promega, Madison, Wis.) was prepared from stock by adding 60 μl 50 mM Ammonium bicarbonate and used for 3 solution digests (20 μl each). […] The tubes were incubated at 55° C. for 30 minutes. The tubes were then removed and brought to the room temperature followed by addition of 3.2 μl of 1M acrylamide and incubated at room temperature for 30 minutes. To the sample, 63 μL of 50 mM Ammonium bicarbonate was added for a final volume of 98 μl and 2 μl of trypsin (10 μg, Trypsin/Lys C Mix). After mixing the solution with pipet the samples were incubated at 37° C. overnight. After the overnight digest, the tryptic digest were quenched and acidified by adding 10 μl of 50% formic acid/water stock dilution. The samples were centrifuged at 10000 G for 2 minutes and purified using stage tip and used for MS/Mass analysis.
(§2) All MS/MS samples were analyzed using Sequest (Thermo Fisher Scientific, San Jose, Calif., USA; version 1.0). Sequest was set up to search the SUMS_uniprot_Human database (35847 entries) assuming the digestion enzyme strict trypsin. Sequest was searched with a fragment ion mass tolerance of 1.00 Da and a parent ion tolerance of 20 PPM. Propionamide of cysteine was specified in Sequest as a fixed modification. Oxidation of methionine and phospho of serine, threonine and tyrosine were specified in Sequest as variable modifications.

Molecule | Semi-quantitative analysis of proteins binding to different plaque particles: Tau
B1 | 3
B2 | 1
B3 | 15
B4 | 3

Biological target: T1, alpha-synuclein plaque particles (Homo sapiens, UniProt P37840)
T1 construct: 140 amino acids polypeptide
Assay: as above
Settings: higher number = stronger affinity
Method: To prepare oligomers/aggregates of human alpha-synuclein (140 amino acids polypeptide), 1 mg of the recombinant alpha-synuclein protein was suspended in 1 mL of PBS and the sample was incubated at 37° C. for 2 hrs. After incubation, all the samples were centrifuged for 5 min. at 5000 rpm to remove precipitate, if any, and the supernatant containing oligomers/aggregates were used in vitro plaque particles formation assay. For detecting alpha-synuclein plaque particles Thioflavin S (Ex/Em=430 nm/550 nm) amyloid binding fluorescent dye (10 μg) was used.
Similarly, to isolate alpha-synuclein plaque particles, diluted plasma or serum samples obtained from AD subjects were used for incubation with alpha-synuclein plaque oligomers/aggregates. Each assay was performed in 1 mL reaction (800 μL of 50% plasma or serum) and 200 μL (30 μg) of the alpha-synuclein aggregates and the mixtures were incubated at 37° C. for 1 hr. To the mixture Thioflavin S dye (120 μg) was added and the sample was incubated for additional 30 min at 37° C. After the incubation, the mixture was directly used for sample acquisition using flow cytometer (FACS ARIA II, BD Biosciences, San Jose, Calif.). After initial detection of alpha-synuclein plaque particles, gates were drawn in the acquisition blot to separately sort and isolate fluorescently labeled alpha-synuclein particles.
as §1, §2
Scaffold (version Scaffold_4.2.1, Proteome Software Inc., Portland, Oreg.) was used to validate MS/MS based peptide and protein identifications.

Molecule | Semi-quantitative analysis of proteins binding to different plaque particles: Synuclein
B1 | 7
B2 | 7
B3 | 7
B4 | 6

System: High Density cholesterol (Chl Large) plaque particles
Assay: as above
Parameters: species or system human
Settings: higher number = stronger affinity
Method: (§3) The goal was to isolate plaque particles synthesized in the bio-fluids in a relatively pure form to enable their subsequent use for identification of components that contribute to the plaque formation. In order to isolate cholesterol plaque particles, the plasma or serum samples obtained from atherosclerotic subjects were first centrifuged at 5,000 rpm for 5 min and the supernatants were transferred to new centrifuge tubes. Next, the supernatants were diluted in PBS to make 50% of the serum and used for incubation with cholesterol oligomers/aggregates. Each assay was performed in 1 mL reaction (800 μL of 50% plasma or serum) and 200 μL (30 μg) of the Cholesterol aggregates and the mixtures were incubated at 37° C. for 1 hr After the incubation, the mixture was directly used for sample acquisition using flow cytometer (FACS ARIA II, BD Biosciences, San Jose, Calif.). […] In order to isolate these fractions, three sets of gates were drawn in the acquisition blot to separately sort and isolate High density or high complex cholesterol particles, Low density or low complex cholesterol particles and both High and low density cholesterol particles together.
as §1, §2
(§4) Scaffold (version Scaffold_4.2.1, Proteome Software Inc., Portland, Oreg.) was used to validate MS/MS based peptide and protein identifications. […] Protein probabilities were assigned by the Protein Prophet algorithm (Nesvizhskii, Al et al 2003).

Molecule | Semi-quantitative analysis of proteins binding to different plaque particles: Chl Large
B1 | 5
B2 | 8
B3 | 10
B4 | 6

System: Low density cholesterol (Chl small) plaque particles
Assay: as above
Parameters: species or system human
Settings: higher number = stronger affinity
Method: as §3, §1, §2, §4

Molecule | Semi-quantitative analysis of proteins binding to different plaque particles: Chl small
B1 | 6
B2 | 8
B3 | 9
B4 | 7

Biological target: T2, Abeta-42 plaque particles (Homo sapiens, UniProt P05067)
T2 construct: Abeta 1-42
Assay: as above
Settings: higher number = stronger affinity
Method: Next to isolate serum derived Abeta-42 plaque particles, the plasma or serum samples obtained from AD subjects were first centrifuged at 5,000 rpm for 5 min and the supernatants were transferred to new centrifuge tubes. Next, the supernatants were diluted in PBS to make 50% of the serum and plasma samples and used for incubation with Abeta-42 plaque oligomers/aggregates. Each assay was performed in 1 mL reaction (800 μL of 50% plasma or serum) and 200 μL (30 μg) of the Abeta-42 aggregates and the mixtures were incubated at 37° C. for 1 hr. To the mixture Thioflavin S dye (120 μg) was added and the sample was incubated for additional 30 min at 37° C. After the incubation, the mixture was directly used for sample acquisition using flow cytometer (FACS ARIA II, BD Biosciences, San Jose, Calif.). After initial detection of Abeta-42 plaque particles in the acquisition blot, gates were drawn in fluorescent dot blot to separately sort and isolate fluorescently labeled Abeta-42 particles.
as §1, §2
as §4, with “2003). […] Proteins sharing significant peptide evidence were grouped into clusters. Proteins were annotated with GO terms from NCBI (downloaded Jan. 17, 2014).” for “2003).”

Molecule | Semi-quantitative analysis of proteins binding to different plaque particles: Abeta-42
B1 | 2
B2 | 0
B3 | 14
B4 | 4
